Test results from the DeepSol protein solubility set.

assay: soluble on expression in E. coli; label from the status in PepcDB or PDB records

Sequence	soluble on expression in E. coli
SLRSIMTPRGEISWVDAEQSEDEIRRQLLSSPHSLFPVCRGELDEIIGIVRAKEMLVALESGENVAALASASPAIVVPETLDPINLLGVLRRARGSFVIVTNEFGVVQGLVTPLDVLEAIAGEFPDADETPEIVIDGDGWLIKGSTDLHALQQALGLDPLINDDEDIATVAGLVISANGHIPRIGDVVSLPPLHFTVVEANDYRVDLVRAVVTRPPSDEEE	not soluble
MSLTEISRFDAYPPTLTVNPIVPADAPATEHLVWTIAQAAEERKAGDLVILKVTDVSYLADYFVICTGFSRTQVRAIADNIEKQVELVHGQLPTHTEGNSESIWVLQDFGDVLVHTFMPEEREFYKLEAFWGHAQEQTLADIATAIGVAYNAPTSPEGHHHHHH	soluble
MSLDSSKRQFLQQLGVLTAGASLVPLAEAKFPFSPERHEGSPRHRYAMLIDLRRCIGCQSCTVSCTIENQTPQGAFRTTVNQYQVQREGSQEVTNVLLPRLCNHCDNPPCVPVCPVQATFQREDGIVVVDNKRCVGCAYCVQACPYDARFINHETQTADKCTFCVHRLEAGLLPACVESCVGGARIIGDIKDPHSRIATMLHQHRDAIKVLKPENGTSPHVFYLGLDDAFVTPLMGRAQPALWQEGHHHHHH	not soluble
QVQLQESGGGLVQAGDSLKLSCEASGDSIGTYVIGWFRQAPGKERIYLATIGRNLVGPSDFYTRYADSVKGRFAVSRDNAKNTVNLQMNSLKPEDTAVYYCAAKTTTWGGNDPNNWNYWGQGTQVTVSS	soluble
MGSDKIHHHHHHMSEAILNICSVSKRFGDNLANDDISLSLGKGEIVALLGENGAGKTTLMSILFGHYVPDSGKVLVEGRELPPGKPRAAIRAGIGMVHQHFSLAPNLTVLENVMAGTERLWHLRSGTSAARRKLHRICQRFGLTVEPDARVGDLSVGEQQRVEILKALYNDAHILVLDEPTAVLTNLEAERLFSTLKDMAREGLSLIFISHKLDEVMAAANRIVVLRGGRKVAERLAKETNKAELAELMVGRRVARPVREPSTPGEVVLKVADVSVSIDGVERLKSIDFSLRAGEVLGIIGVSGNGQTTLAHLLSGTLRRDKGDLLLFGEPIGDLTVDDAVRAGIGRIPEDRNKEGAIGEMAIWENAVLERLPRFSRYGLVDRPSGQAFAGQIIDAFDVRGGRPTTRTRLLSGGNMQKLILGRNLMDRPRILLAAQPARGLDEGAVAAVHERLLEARRAGTAVLLISEDLEEVMALADRIQAIVNGRLSPPIAADSASATKLGLMMAGEWNEEHEVPHAF	not soluble
MGHHHHHHGGHMSLIDLHIHSNYSDGQGSVEEIARRAKERGLKAIAIVDHSIELPFGLTEKKARMREIEIENAASLYGIKIYSGIECSINAAGEIVLPDFDFDFIIASVHEFVYGQAYYERVIRCLESHDVDVLGHPFSPLFGFDGRLAEMDEKLLDVVEERGVAVELNSSHKSPQDEFLQLCRDRKIAYSIGSDAHSLSGVGEVGWSVEKAKRYMAGAKLFTPEGGS	soluble
MSKQIVILGAGYGGLLAALNVRKYYSKSEAQVTVINQYPTHQIITELHRLAAGNVSEQAVAMPLTKLFKGKDIDLKIATVESFSVDSKEIKLAGGTTLSYDALVVALGSKTAYFGIPGLEENSMVLKSAADANKIYKHVEDRIREYAKTKNEADATIVIGGGGLTGVELVGELADIMPKLAKSHGVNPKEVKLLLVEAGPKILPVLPDHLIERATTSLEARGVTFLTGLPVTNVAGNEIDLKDGQKLVANTFVWTGGVQGNPLIGESGLEVNRGRATVDAYLQSTSHKDVFVAGDSAVVFAPDGRPYPPTAQIAWQMGELIGYNLYAALEGKAFEEFAPVNSGTLASLGRKDAVATIGASNTPLKGLPASLMKEASNVRYLSHIKGLFSLAY	not soluble
MDGGADLYKPGEPGAMKKPKSVRQERILTELNQAPSLRVAELARRLDVSTETIRRDLDEMTEQGLLNRTYGGAVRSLSTEPSVTERHTLFVGERERIAKAAVQILKGAQVLMIGSGSTTVHTARRIAVEMKNITVLTHSFGVATVLAINPTIKVVMLPGDYHATEGATVGAHAVSFLNSFYADFTILGASGLGPDGPSDALLECGAVYSAMVSRAARTIVVADHSKHDRLFPARYAPWRDIAHVVTDKAPGEDLTESLDSSGVKLTVCLEHHHHHH	soluble
MGSDKIHHHHHHMSDPAGKPCIICVAITGSLPTKENNPAVPITLAEQVESTHEAFEAGASIAHCHVRDDEGRPTSDPDRFAALKEGLERHCPGMIVQLSTGGRSGAGQARGAMLPLCPDMASLSVGSNNFPTRVYENPPDLVDWLAAEMLKYDIKPEIEAFDLSHILQAKRMAGDGRLAGTPYVQFVMGVRNAMPADRDVFDYYIHTVRRLFGEDAPWCAAGIGPSQIVLNEWAISSGGHARTGLEDNVRLDRDRLAPSNAALVGRAVELCEKYERPVATWRQARQILGLRMV	not soluble
MDGHAPTFTSIQDIQGEGASSPFIDGYPYITTEEHFVTGVVSAVTSGLTKGFYLQAIENDNNDKTSEGLFIHTNAADTELKPGDVVCVKGKVQEYYNNTQLSSDATSYVKTGTSDIPLVTPLVIKEGETLRDALERHEGMQVTLNSASDLFVTRNFSYDYDSKRNNMMLSHQAPLFKPTQLHAADSAEAVALAKQNAENRVFLESDAKAPNGKIPYYPEFGQDLDQDGSSEQHIRLGSRVEGLQGVVNYSYNEYRLIATNDVNNTNFVAAGDGFDVERKAAPAIAESDLRVASFNVLNYFTSVALEHHHHHH	not soluble
MGSDKIHHHHHHMQQKKTTKEEYQKCVNVVVEYINQHLGEDIDLKSLARISNFSPFYFHRIMKAFLGEPIGTFIVRTRTEAAARLLRYSDIPIADIAYRIGYSSPSSLSKVFRQFYGISPLEYRNNKNFVIMKPAIIRPDLELKSEIKSIPARNVIYIRLSGDYKLNDYGGTWGRLWQFIKEQKLPMGDFSPLCIYHDDPKVTPAEKLRTDVCMVMPVQVAPKGDVGFKTLPAGRYAIFLYKGTYDNLQAVYDTIYGKCLPEMECTLRDEPSAERYLNNPCETAPEELLTEIYIPVE	not soluble
SRDEIATTVFFVTRLVKKHDKLSKQQIEDFAEKLMTILFETYRSHWHSDCPSKGQAFRCIRINNNQNKDPILERACVESNVDFSHLGLPKEMTIWVDPFEVCCRYGEKNHPFTVASFKGRWEEWELYQQISYAVSRASSDVSSGTSCDEESCSKEPRVIPKVSNPKSIYQVKSVPVLFYTFFLSNSKKNALIMKTKKQKNMERTKL	soluble
AHHHHHHASAKWVCKICGYIYDEDAGDPDNGISPGTKFEELPDDWVCPICGAPKSEFEKLEDGSRFIDSNVFLYAMIKPKGNTSKEILKKKEKAKKILLRVENGEDVVTTLIHLSEIANILEAKVNLTTAVRFLENLLLAENVKILPVSVEEYLKAVLISKEKGISVNDALAYLKMKELNIKEIYTFDRHFQNLDVEVIQD	soluble
MRLQTVKHFLEPVLEPLIRKVVKEEVELALGKHLAGIKWICEKETHPLESRNLQLKFLNNLSLPVFTSARIEGDEGQAIRVGLIDPSTGQIFSSGPASSAKLEVFVVEGDFNSVSDWTDEDIRNNIVREREGKKPLLNGNVFAVLNDGIGVMDEISFTDNSSWTRSRKFRLGVRIVDQFDYVKIREAITESFVVRDHRGELYKKHHPPSLFDEVWRLEKIGKDGAFHRRLNLSNINTVKDFLTHFHLNSSKLRQVLGTGMSSKMWEITLDHARSCVLDSSVHVYQAPGFQKKTAVVFNVVAQVLGLLVDFQYIPAEKLSEIEKALILSVYIFDLAQAEVMVIDALSHLNEVISYDDEVSMMRNVLNAPASQGSVAGIDYSGLSLTSLDGYGFVSSLHNTAECSGKHSDDVDMEVTPHGLYEDYDNLWNCSHILGLEEPQSELQSALDDFMSQKNASVGGKAHSKRWTKLFSVSRWLSVFKYVKLGKI	soluble
MSLKKAIAYMRFSSPGQMSGDSLNRQRRLIAEWLKVNSDYYLDTITYEDLGLSAFKGKHAQSGAFSEFLDAIEHGYILPGTTLLVESLDRLSREKVGEAIERLKLILNHGIDVITLCDNTVYNIDSLNEPYSLIKAILIAQRANEESEIKSSRVKLSWKKKRQDALESGTIMTASCPRWLSLDDKRTAFVPDPDRVKTIELIFKLRMERRSLNAIAKYLNDHAVKNFSGKESAWGPSVIEKLLANKALIGICVPSYRARGKGISEIAGYYPRVISDDLFYAVQEIRLAPFGISNSEGHHHHHH	soluble
MAHHHHHHMRISCSCLNKSLVSTAIPSDIIERAGTNLPGIPHKYRVCRAYRQWLKLAVLCPHSLLCELNEHAQMNERFVIIVRQKFREGEELRDPEEIAVAVQSCERSLAMFRFLAADGARRRFPEAKPRLNLHKMGFMEMAKINYTQMAKEYWNTYIMRRW	not soluble
MAMKVKEVANLVGISVRTLHHYDEIGLLTPDETTESGYRLYSNENLEMLQQILFFKELGFPLKKIKEIIMSPSFDRKEALQLHKKMLLEKRARLDKVIATIDKTIQHTKGEIEMTNKEKFKGFDFSHNPYEEEARERWGDAAVDKANEYAKGMSKEKQEEFNAIYRNLAALRHGAPDSKEAQEAIKVWYDYLQNFSHYSLDAFKGLGQMYVADERFTKNIDKFGEGLAQFMCDAMEVYADRNK	not soluble
MGSDKIHHHHHHMRKDEIMHIVSCADDNYARHLGGMFVSLLTNMDQEREVKLYVIDGGIKPDNKKRLEETTLKFGVPIEFLEVDTNMYEHAVESSHITKAAYYRISIPDLIKDESIKRMIYIDCDALVLEDISKLWDLDIAPYTVAAVEDAGQHERLKEMNVTDTGKYFNSGIMIIDFESWRKQNITEKVINFINEHPDEDFLVLHDQDALNAILYDQWYELHPRWNAQTYIMLKLKTPSTLLGRKQYNETRENPAIVHFCGGEKPWNSNTKHPYRDEYFHYMSYTKWNTIGNPAINQ	not soluble
MNTSTSAFDFGSSTASSAATSTTSSQPDANDHLSRLAAMTQGVGKEDPETSSTPSTEASLYPGISAAYMQSYGWPQNYNYFGQPLGPATFPGWPQCYPNTAWPNYGELFASSKKGRQTYQRYQTSVLEAKFQQSSYVSKKQREELRLQTQLTDRQIKIWFQNRRMKAKKEKQRVDDHTEHTPLLPANPPKGMGMDMDDEKKWQMAHWPPAAAHNPYQYPLCPP	soluble
MLDTQTIAIVKSTIPLLAATGPKLTAHFYERMFKHHPELKNIFNMSNQSSGDQREALFNAICAYATNIENLAALLPTVERIAQKHTSLNIQPEHYPIVGEHLIATLDELFSPGQAVLDAWAKAYGVLADVFIQRESQIYQQSETETGGWRTLRRFRIIKKEQQSEVICSFVLAPEDGGQVLHYKPGQYLGIYIEHESLEFQEIRQYSLTTAPNGKTYRIAVKREEQGTVSNLLHRELNEGDIVRIAPPRGDFFLDVSPDTPVALISAGVGQTPMLSMLNTLYSQQHAAPVHWLHAAENGRVHAFADEVSAIAAKMPNLSRHVWYREPDLQDKHGEDYHSQGLMDLSSYQWLADDPKRHYYFCGPLPFMQFIGRQLLAQGIAPEQIHYECFGPHKVI	not soluble
MSQPESPEQRRTAILATAERILRSGSPLTLGKVAQEVGISRTALYRYVSGIDEIIETLATKDFPHWLTSLRSAMAAAPTPKQRALCWAIESIKLGRETDHAWLATLSSLNLSENCRNAIASEHSKIDQLLRVELAQLGTPHIELTVATVRAVVMTAIQTPSSTEADDYFTATISAIIDASC	not soluble
MSQDIFTRDNLLRVENPNILVGESPVKYRVEEIYLDGKLKKAEDVDEEEKSYGIFMHSLVLSNYAEVMNVSHKKLDVIRDEKEKAIFYFTEEKGFDKSLIESIVPKVEAFSLNEDKLKVSTHIINEKMRIISRGTPDELLKRCSYILLDSKIVKKTRKIYREINRVLNDMINRCCTVYALAIKDVSKTDIITNVDAYIDGMTLVALIGMCRA	soluble
